The record followed here is US20250115678A1 (AstraZeneca / MedImmune, published 2025).

The Kd is the equilibrium constant for the complex coming apart. As usually defined, the koff is the rate constant with which the complex falls apart. Usually kon stands for the second-order rate constant of association.

Substitutions are numbered along the chain they refer to.

In assay [1] the target is T1, soluble recombinant human CD8a protein (human, UniProt P01732 22-182, biotinylated).
T1 construct: also called CD8α Human
Briefly: biolayer interferometry (Octet RED384), biotinylated antigen on streptavidin biosensors. The method, then: (§1) Binding kinetics were measured by biolayer interferometry on an OCTET 384 instrument. Streptavidin (SA) biosensors were loaded with biotinylated protein antigens (ACRO Biosystems, Newark, DE) in PBS pH 7.2, 1 mg/mL BSA, 0.05% (v/v) TWEEN (Kinetic buffer). The loaded biosensors were washed in the same buffer before carrying out association and dissociation measurements with various antibodies for the indicated times. Kinetic parameters (Kₒₙ and Koff) and affinities (KD) were calculated from a non-linear fit of the data using the OCTET software v.12.2.1.24.

In assay [2] the target is T2, soluble recombinant human GPC3 protein (human, UniProt P51654 25-559, biotinylated in the biolayer interferometry assay).
T2 construct: also called GPC3 human
Briefly: biolayer interferometry (Octet), biotinylated antigen on streptavidin biosensors. The method, then:
as §1
(In BLI a coated tip is dipped into the sample, and binding shifts an interference pattern.)

The target of assay [3] is T3, human EphB6 on transiently transfected Ad293 cells (human, UniProt O15197 32-1021).
T3 construct: whole, on cells; also called EphB6-expressing cells
T3 sequence (looked up): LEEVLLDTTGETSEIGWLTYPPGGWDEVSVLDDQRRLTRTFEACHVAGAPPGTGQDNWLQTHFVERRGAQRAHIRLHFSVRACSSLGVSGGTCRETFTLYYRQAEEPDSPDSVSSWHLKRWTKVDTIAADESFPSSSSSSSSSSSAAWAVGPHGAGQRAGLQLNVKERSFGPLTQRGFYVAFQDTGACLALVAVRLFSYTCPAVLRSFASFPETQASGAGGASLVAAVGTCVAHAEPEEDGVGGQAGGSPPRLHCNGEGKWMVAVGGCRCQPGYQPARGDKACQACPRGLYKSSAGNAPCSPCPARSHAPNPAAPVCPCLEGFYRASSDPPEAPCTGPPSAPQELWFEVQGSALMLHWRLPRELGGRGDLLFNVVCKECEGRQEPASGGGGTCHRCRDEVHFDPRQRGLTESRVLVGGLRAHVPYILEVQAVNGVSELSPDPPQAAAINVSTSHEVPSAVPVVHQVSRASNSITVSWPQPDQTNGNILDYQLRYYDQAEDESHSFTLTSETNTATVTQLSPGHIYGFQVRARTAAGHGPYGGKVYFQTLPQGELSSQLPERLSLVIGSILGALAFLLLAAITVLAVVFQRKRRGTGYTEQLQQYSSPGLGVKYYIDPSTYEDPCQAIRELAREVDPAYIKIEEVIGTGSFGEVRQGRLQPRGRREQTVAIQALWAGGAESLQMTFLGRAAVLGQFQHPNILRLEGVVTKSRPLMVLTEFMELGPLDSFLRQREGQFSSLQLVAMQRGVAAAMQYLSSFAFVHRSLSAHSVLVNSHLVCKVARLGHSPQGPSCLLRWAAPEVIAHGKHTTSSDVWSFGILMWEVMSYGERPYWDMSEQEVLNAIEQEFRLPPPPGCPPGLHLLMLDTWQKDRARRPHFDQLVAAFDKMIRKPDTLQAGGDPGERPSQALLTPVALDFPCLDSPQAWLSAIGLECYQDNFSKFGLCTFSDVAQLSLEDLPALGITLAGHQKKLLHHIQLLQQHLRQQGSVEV
Briefly: Flow cytometry on Ad293 cells transiently transfected with human EphB6 (off-target binding). The text has this: Ad293 cells were transiently transfected with a plasmid expressing human EphB6.
A general note: Flow cytometry measures light scatter and fluorescence of single cells or particles in a stream.

In assay [4] the target is T4, human LRRC15 recombinant extracellular domain protein (human, UniProt Q8TF66 22-538).
T4 construct: extracellular domain; also called LRRC15 human
T4 sequence (looked up): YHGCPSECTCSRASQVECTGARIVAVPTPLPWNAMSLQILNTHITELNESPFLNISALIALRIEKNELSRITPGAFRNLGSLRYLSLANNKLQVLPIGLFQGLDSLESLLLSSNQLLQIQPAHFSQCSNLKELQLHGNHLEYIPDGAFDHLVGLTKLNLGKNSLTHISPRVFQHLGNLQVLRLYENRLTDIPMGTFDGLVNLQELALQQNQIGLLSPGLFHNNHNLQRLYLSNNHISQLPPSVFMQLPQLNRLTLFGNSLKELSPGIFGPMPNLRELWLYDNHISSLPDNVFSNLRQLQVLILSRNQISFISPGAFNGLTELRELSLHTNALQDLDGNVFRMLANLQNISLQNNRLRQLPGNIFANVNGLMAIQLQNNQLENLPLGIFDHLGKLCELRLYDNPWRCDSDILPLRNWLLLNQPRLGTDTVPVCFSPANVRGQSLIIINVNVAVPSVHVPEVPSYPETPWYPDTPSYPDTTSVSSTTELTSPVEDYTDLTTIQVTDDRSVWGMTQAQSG
Briefly: SPR single-cycle kinetics (Biacore 8K+), TCE captured on Protein G chip, LRRC15 ECD as analyte, 1:1 fit, average of 3 or 4 replicates. The source says:
(§2) The fully corrected binding data were globally fitted to a 1:1 binding model to determine the KD using the Biacore™ Insight Evaluation Software (CYTIVA). Coloured sensorgram trace represents the raw data and black line the global 1:1 fit to that data. Values for kinetics parameters is shown in Table 8 are averages for 3 or 4 replicate sets of measurements.

Assay [5] concerns the target T5, cyno LRRC15 recombinant extracellular domain protein (cyno, UniProt G7NYR2 22-538).
T5 construct: extracellular domain; also called LRRC15 cyno
Described as above.
Description: as §2

T1 sequence (P01732 22-182 limits assumed): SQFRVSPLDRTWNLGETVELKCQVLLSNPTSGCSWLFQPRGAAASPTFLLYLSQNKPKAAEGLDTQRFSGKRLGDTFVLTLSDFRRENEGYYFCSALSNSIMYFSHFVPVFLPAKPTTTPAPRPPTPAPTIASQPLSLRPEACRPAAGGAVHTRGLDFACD
T2 sequence (P51654 25-559 limits assumed): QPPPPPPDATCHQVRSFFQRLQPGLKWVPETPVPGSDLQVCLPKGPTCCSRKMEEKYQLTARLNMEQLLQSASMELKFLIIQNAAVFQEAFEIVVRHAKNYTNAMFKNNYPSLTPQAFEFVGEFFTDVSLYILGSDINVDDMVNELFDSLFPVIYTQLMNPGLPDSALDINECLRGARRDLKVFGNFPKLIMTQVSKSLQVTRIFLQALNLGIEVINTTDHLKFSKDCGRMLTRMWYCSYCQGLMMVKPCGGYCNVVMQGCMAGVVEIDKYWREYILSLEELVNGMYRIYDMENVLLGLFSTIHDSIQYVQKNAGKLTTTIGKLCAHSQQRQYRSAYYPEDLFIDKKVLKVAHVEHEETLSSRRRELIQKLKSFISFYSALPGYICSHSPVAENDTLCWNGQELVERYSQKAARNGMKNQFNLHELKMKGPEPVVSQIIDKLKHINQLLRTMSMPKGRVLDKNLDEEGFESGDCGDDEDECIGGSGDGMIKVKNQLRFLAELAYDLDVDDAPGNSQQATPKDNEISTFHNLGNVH

B1: anti-CD8 VHH (VHH)
VHH: EVQLLESGGGLVQPGGSLRLSCAASGFTFDDYAIGWFRQAPGKEREGVSCIRVSDGSTYYADSVKGRFTISRDNSKNTLYLQMNSLRAEDTAVYYCAAGSLYTCVQSIVWPARPYYDMDYWGQGTLV
notes: also called CD8 VHHb
Take B1: in assay [1], the dissociation constant (Kd) worked out at 55.3 nM, the koff turned out to be 0.0286 s⁻¹ and the kon stood at 517000 M⁻¹ s⁻¹.

B2: anti-GPC3 Fab (Fab, V domains shown)
VH: QVQLVQSGAEVKKPGASVKVSCKASGYTFTDYEMHWVRQAPGQGLEWMGALDPKTGDTAYSQKFKGRVTLTADKSTSTAYMELSSLTSEDTAVYYCTRFYSYTYWGQGTLVTVSS
VL: DVVMTQSPLSLPVTPGEPASISCRSSQSLVHSNRNTYLHWYLQKPGQSPQLLIYKVSNRFSGVPDRFSGSGSGTDFTLKISRVEAEDVGVYYCSQNTHVPPTFGQGTKLEIK
Turning to B2, in assay [2], the equilibrium dissociation constant (Kd) turned out to be 1.87 nM, the koff is 0.000422 s⁻¹ and the kon came to 226000 M⁻¹ s⁻¹.

B3: TPP-46959 (other)
light: not shown
heavy 1: EVQLVQSGAEVKKPGASVKVSCKASGYKFSSYWIEWVKQAPGQGLEWIGEILPGSDTTNYAQKFQDRVTFTSDTSISTAYMELSRLRSDDTAVYYCARDRGNYRAWFGYWGQGTLVTVSSASTKGPSVFPLAPSSKSTSGGTAALGCLVKDYFPEPVTVSWNSGALTSGVHTFPAVLQSSGLYSLSSVVTVPSSSLGTQTYICNVNHKPSNTKVDKRVEPKSCDKTGGSEVQLVESGGGLVQPGGSLRLSCVASGDVHKINFLGWYRQAPGKEREKVAHISIGDQTDYADSAKGRFTISRDESKNMVYLQMNSLKPEDTAVYFCRAFSRIYPYDYWGQGTLVTVSSGGGGSTHTCPPCPAPPVAGPSVFLFPPKPKDTLMISRTPEVTCVVVDVKHEDPEVKFNWYVDGVEVHNAKTKPREEQYNSTYRVVSVLTVLHQDWLNGKEYKCKVSNKALPAPIEKTISKAKGQPREPQVCTLPPSREEMTKNQVSLSCAVKGFYPSDIAVEWESNGQPENNYKTTPPVLDSDGSFFLVSKLTVDKSRWQQGNVFSCSVMHEALHNRFTQKSLSLSPGK
heavy 2: EVQLVQSGAEVKKPGASVKVSCKASGYKFSSYWIEWVKQAPGQGLEWIGEILPGSDTTNYAQKFQDRVTFTSDTSISTAYMELSRLRSDDTAVYYCARDRGNYRAWFGYWGQGTLVTVSSASTKGPSVFPLAPSSKSTSGGTAALGCLVKDYFPEPVTVSWNSGALTSGVHTFPAVLQSSGLYSLSSVVTVPSSSLGTQTYICNVNHKPSNTKVDKRVEPKSCDKTGGSEVQLLESGGGLVQPGGSLRLSCAASGFTFTDYAIGWFRQAPGKEREGVSCIRVSDGSTYYADSVKGRFTISRDSSKNTLYLQMNSLRAEDTAVYYCAAGSLYTCVQSIVWPARPYYDMDYWGQGTLVTVSSGGGGSTHTCPPCPAPPVAGPSVFLFPPKPKDTLMISRTPEVTCVVVDVKHEDPEVKFNWYVDGVEVHNAKTKPREEQYNSTYRVVSVLTVLHQDWLNGKEYKCKVSNKALPAPIEKTISKAKGQPREPQVYTLPPCREEMTKNQVSLWCLVKGFYPSDIAVEWESNGQPENNYKTTPPVLDSDGSFFLYSKLTVDKSRWQQGNVFSCSVMHEALHNHYTQKSLSLSPGK
notes: T-cell engager in the CD8/TCR format: 2x LRRC15 Fab, 1x TCR VHH, 1x CD8 VHH; Residue 55 of L-CDR2 is E
Regarding B3, in assay [3], the binding result is recorded as “binds”. Also, the Kd in assay [4] was 1.34 nM; in assay [5] it was 3 nM.

B4: TPP-46957 (other)
light: not shown
heavy 1: B3 heavy 1 with K63Q
heavy 2: B3 heavy 2 with K63Q
notes: T-cell engager in the CD8/TCR format: 2x LRRC15 Fab, 1x TCR VHH, 1x CD8 VHH
Regarding B4, the binding result in assay [3] was “binds”. Also, the Kd in assay [4] was determined as 2.27 nM; in assay [5], 4.55 nM.

B5: TPP-46956 (other)
light: not shown
heavy 1: B3 heavy 1 with K63N
heavy 2: B3 heavy 2 with K63N
notes: as for B4
With B5, the binding result in assay [3] was “binds”. Moreover, the Kd in assay [4] was 2.24 nM; in assay [5], 4.8 nM.

B6: TPP-46960 (other)
light: not shown
heavy 1: B3 heavy 1
heavy 2: B3 heavy 2
notes: T-cell engager in the CD8/TCR format: 2x LRRC15 Fab, 1x TCR VHH, 1x CD8 VHH; Residue 55 of L-CDR2 is N
Turning to B6, in assay [3], the binding result is recorded as “binds”. Further, the figures for the Kd in assay [4] and in assay [5] were 0.98 nM and 2.24 nM, respectively.

B7: TPP-46958 (other)
light: not shown
heavy 1: B3 heavy 1 with T57A
heavy 2: B3 heavy 2 with T57A
notes: as for B4
On to B7, for which, in assay [3], the binding result was “binds”. The dissociation constant (Kd) was 3.1 nM in assay [4] and 6.4 nM in assay [5].
